Measured values as given in paper PMC10460389, “Design of 8-mer peptides that block Clostridioides difficile toxin A in intestinal cells” (Communications Biology, 2023).
Ends that are not written are not given here.

Molecular target: T1, Clostridioides difficile Toxin A labelled with Alexa Fluor 594 (Clostridioides difficile, UniProt P16154 1-2710)
T1 construct: also called TcdA-AF594; red fluorescently labeled TcdA
Assay: bead-based fluorescence imaging
Conditions: both partners purified

T1 sequence (P16154 whole entry, looked up): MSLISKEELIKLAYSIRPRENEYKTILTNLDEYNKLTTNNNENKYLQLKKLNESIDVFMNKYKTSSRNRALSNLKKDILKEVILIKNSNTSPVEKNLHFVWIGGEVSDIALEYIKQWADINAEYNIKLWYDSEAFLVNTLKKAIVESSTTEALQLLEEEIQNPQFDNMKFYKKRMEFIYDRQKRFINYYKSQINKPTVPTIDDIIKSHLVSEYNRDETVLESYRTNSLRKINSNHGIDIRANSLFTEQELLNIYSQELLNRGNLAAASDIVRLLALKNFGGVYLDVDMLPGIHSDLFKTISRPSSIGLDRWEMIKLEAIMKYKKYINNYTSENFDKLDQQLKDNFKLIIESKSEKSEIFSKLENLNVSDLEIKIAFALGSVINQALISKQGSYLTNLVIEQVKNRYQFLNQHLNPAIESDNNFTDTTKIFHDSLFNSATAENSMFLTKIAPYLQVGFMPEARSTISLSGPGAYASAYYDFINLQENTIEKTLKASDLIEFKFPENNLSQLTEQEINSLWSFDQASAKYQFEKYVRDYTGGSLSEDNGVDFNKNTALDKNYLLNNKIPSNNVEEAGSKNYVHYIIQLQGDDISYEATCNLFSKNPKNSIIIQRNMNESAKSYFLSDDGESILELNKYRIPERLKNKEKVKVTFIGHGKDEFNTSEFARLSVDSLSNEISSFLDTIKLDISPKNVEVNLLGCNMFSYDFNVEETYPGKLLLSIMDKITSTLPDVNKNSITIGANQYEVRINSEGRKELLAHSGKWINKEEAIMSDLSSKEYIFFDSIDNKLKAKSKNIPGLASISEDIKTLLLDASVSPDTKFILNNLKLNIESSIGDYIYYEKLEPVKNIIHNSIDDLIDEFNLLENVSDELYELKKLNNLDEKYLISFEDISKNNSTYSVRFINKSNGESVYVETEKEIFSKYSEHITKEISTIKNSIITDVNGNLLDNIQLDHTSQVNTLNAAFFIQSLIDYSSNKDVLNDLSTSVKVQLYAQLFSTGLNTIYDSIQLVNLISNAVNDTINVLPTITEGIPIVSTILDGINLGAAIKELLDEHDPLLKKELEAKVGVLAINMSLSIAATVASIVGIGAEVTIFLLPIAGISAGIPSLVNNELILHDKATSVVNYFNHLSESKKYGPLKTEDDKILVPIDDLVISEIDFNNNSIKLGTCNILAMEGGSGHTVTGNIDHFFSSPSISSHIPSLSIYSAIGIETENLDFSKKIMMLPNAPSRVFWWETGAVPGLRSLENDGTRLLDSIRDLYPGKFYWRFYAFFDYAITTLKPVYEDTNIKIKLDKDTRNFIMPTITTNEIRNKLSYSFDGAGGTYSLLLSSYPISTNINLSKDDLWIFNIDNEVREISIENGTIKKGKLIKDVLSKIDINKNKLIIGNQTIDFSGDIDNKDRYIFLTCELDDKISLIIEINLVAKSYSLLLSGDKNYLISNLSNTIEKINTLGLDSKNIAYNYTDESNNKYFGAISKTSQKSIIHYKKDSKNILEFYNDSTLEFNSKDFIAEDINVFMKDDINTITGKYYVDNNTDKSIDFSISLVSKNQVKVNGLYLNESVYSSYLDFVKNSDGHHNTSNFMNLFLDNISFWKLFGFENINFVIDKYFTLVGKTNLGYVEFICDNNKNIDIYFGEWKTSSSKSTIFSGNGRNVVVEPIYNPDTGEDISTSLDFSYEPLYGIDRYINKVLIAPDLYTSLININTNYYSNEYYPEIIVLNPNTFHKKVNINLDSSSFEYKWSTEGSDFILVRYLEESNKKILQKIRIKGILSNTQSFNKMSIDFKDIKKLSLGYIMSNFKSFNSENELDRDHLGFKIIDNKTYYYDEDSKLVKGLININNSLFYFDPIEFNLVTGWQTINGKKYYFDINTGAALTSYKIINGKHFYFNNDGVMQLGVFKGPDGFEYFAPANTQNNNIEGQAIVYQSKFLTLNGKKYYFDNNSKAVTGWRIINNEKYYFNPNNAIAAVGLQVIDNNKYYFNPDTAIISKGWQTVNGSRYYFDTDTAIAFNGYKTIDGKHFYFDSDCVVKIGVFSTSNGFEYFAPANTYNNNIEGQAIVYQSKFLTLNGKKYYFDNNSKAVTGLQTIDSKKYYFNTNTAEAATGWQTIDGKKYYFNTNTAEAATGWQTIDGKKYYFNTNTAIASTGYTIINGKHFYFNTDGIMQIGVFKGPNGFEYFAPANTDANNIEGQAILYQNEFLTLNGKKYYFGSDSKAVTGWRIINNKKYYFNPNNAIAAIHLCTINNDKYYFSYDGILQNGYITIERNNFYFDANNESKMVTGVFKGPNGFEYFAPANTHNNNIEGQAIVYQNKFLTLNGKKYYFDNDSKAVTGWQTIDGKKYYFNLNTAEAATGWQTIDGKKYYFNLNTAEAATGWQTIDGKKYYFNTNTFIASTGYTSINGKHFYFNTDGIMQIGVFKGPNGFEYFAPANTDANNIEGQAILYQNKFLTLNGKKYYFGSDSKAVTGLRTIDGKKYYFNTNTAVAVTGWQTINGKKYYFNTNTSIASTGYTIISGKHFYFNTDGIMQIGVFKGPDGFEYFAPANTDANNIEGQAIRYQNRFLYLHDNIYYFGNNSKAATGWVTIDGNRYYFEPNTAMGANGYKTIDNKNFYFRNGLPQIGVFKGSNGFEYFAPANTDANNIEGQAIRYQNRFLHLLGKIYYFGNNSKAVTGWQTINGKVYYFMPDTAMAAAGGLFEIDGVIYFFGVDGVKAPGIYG

B1: SA2 on ChemMatrix Aminomethyl bead (GSG linker) (peptide)
peptide: QDWMRRHWGSG
modifications: also: on ChemMatrix Aminomethyl bead via GSG linker
binding result: binds

B2: SA4 on ChemMatrix Aminomethyl bead (GSG linker) (peptide)
peptide: MFWEHRHRGSG
modifications: also: on ChemMatrix Aminomethyl bead via GSG linker
binding result: binds
